B1: F1*; the commonest letter at each place (parent)
chain: GAGACCGCAACTGAAAAGTTGTTATCACTTGTCGTAAGACACTTTGGATGGGTTGAAGTTCTGCACGTAGAAGCAAAAGGC

Variants of: B1
Assay: fraction ligated after 30 min (ligated reads / total reads); higher = more ligase activity
Conditions: with F1*sub RNA substrate (template-directed ligation), 42 °C
How it was run: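 Oligo-pool templates of ligase ribozyme variants were PCR-amplified, T7-transcribed and gel-purified. Ligated and unligated bands were gel-separated, reverse transcribed with barcoded primers, and MiSeq-sequenced; core bases were filtered at quality ≥20. Fraction ligated per variant was ligated reads over total reads.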

| Variant | fraction ligated |
| --- | --- |
| GAGACCGCAACTGAAAAGTTGTTATCACTTGTCGTAAGACAGTTTGGATGGGTTGCAGTTCTGCACGTAGAAGCAAAAGGC [C42G A56C] | 0.801 |
| GAGACCGCAACTGAAAAGTTGTTATCACTTGTCGTAAGACAGTTTAGATGGGTTGAAGTTCTGCACGTAGAAGCAAAAGGC [C42G G46A] | 0.808 |
| GAGACCGCAACTGAAAAGTTGTTATCACTTGTCGTAAGACAGTTTTGATGGGTTGAAGTTCTGCACGTAGAAGCAAAAGGC [C42G G46T] | 0.793 |
| GAGACCGCAACTGAAAAGTTGTTATCACTTGTCGTAAGACAGTTTCGATGGGTTGAAGTTCTGCACGTAGAAGCAAAAGGC [C42G G46C] | 0.816 |
| GAGACCGCAACTGAAAAGTTGTTATCACTTGTCGTAAGACAATTTGGAGGGGTTGAAGTTCTGCACGTAGAAGCAAAAGGC [C42A T49G] | 0.789 |
| GAGACCGCAACTGAAAAGTTGTTATCACTTGTCGTAAGACAATTTGGACGGGTTGAAGTTCTGCACGTAGAAGCAAAAGGC [C42A T49C] | 0.727 |
| GAGACCGCAACTGAAAAGTTGTTATCACTTGTCGTAAGACAATTTGGAAGGGTTGAAGTTCTGCACGTAGAAGCAAAAGGC [C42A T49A] | 0.797 |
| GAGACCGCAACTGAAAAGTTGTTATCACTTGTCGTAAGACAGTTTGGATAGGTTGAAGTTCTGCACGTAGAAGCAAAAGGC [C42G G50A] | 0.372 |
| GAGACCGCAACTGAAAAGTTGTTATCACTTGTCGTAAGACAGTTTGGATTGGTTGAAGTTCTGCACGTAGAAGCAAAAGGC [C42G G50T] | 0.713 |
| GAGACCGCAACTGAAAAGTTGTTATCACTTGTCGTAAGACAGTTTGGATCGGTTGAAGTTCTGCACGTAGAAGCAAAAGGC [C42G G50C] | 0.27 |
| GAGACCGCAACTGAAAAGTTGTTATCACTTGTCGTAAGACAGTTAGGATGGGTTGAAGTTCTGCACGTAGAAGCAAAAGGC [C42G T45A] | 0.796 |
| GAGACCGCAACTGAAAAGTTGTTATCACTTGTCGTAAGACAGTTCGGATGGGTTGAAGTTCTGCACGTAGAAGCAAAAGGC [C42G T45C] | 0.756 |
| GAGACCGCAACTGAAAAGTTGTTATCACTTGTCGTAAGACAGTTGGGATGGGTTGAAGTTCTGCACGTAGAAGCAAAAGGC [C42G T45G] | 0.291 |
| GAGACCGCAACTGAAAAGTTGTTATCACTTGTCGTAAGACATTTTGGGTGGGTTGAAGTTCTGCACGTAGAAGCAAAAGGC [C42T A48G] | 0.806 |
| GAGACCGCAACTGAAAAGTTGTTATCACTTGTCGTAAGACATTTTGGCTGGGTTGAAGTTCTGCACGTAGAAGCAAAAGGC [C42T A48C] | 0.779 |
| GAGACCGCAACTGAAAAGTTGTTATCACTTGTCGTAAGACATTTTGGTTGGGTTGAAGTTCTGCACGTAGAAGCAAAAGGC [C42T A48T] | 0.796 |
| GAGACCGCAACTGAAAAGTTGTTATCACTTGTCGTAAGACATTTTGCATGGGTTGAAGTTCTGCACGTAGAAGCAAAAGGC [C42T G47C] | 0.11 |

| Variant | fraction ligated |
| --- | --- |
| GAGACCGCAACTGAAAAGTTGTTATCACTTGTCGTAAGACATTTTGTATGGGTTGAAGTTCTGCACGTAGAAGCAAAAGGC [C42T G47T] | 0.408 |
| GAGACCGCAACTGAAAAGTTGTTATCACTTGTCGTAAGACATTTTGAATGGGTTGAAGTTCTGCACGTAGAAGCAAAAGGC [C42T G47A] | 0.823 |
| GAGACCGCAACTGAAAAGTTGTTATCACTTGTCGTAAGACATTTTGGATGGGTTGACGTTCTGCACGTAGAAGCAAAAGGC [C42T A57C] | 0.812 |
| GAGACCGCAACTGAAAAGTTGTTATCACTTGTCGTAAGACATTTTGGATGGGTTGATGTTCTGCACGTAGAAGCAAAAGGC [C42T A57T] | 0.847 |
| GAGACCGCAACTGAAAAGTTGTTATCACTTGTCGTAAGACATTTTGGATGGGTTGAGGTTCTGCACGTAGAAGCAAAAGGC [C42T A57G] | 0.812 |
| GAGACCGCAACTGAAAAGTTGTTATCACTTGTCGTAAGACAATTGGGATGGGTTGAAGTTCTGCACGTAGAAGCAAAAGGC [C42A T45G] | 0.282 |
| GAGACCGCAACTGAAAAGTTGTTATCACTTGTCGTAAGACAATTAGGATGGGTTGAAGTTCTGCACGTAGAAGCAAAAGGC [C42A T45A] | 0.766 |
| GAGACCGCAACTGAAAAGTTGTTATCACTTGTCGTAAGACAATTCGGATGGGTTGAAGTTCTGCACGTAGAAGCAAAAGGC [C42A T45C] | 0.778 |
| GAGACCGCAACTGAAAAGTTGTTATCACTTGTCGTAAGACAGTGTGGATGGGTTGAAGTTCTGCACGTAGAAGCAAAAGGC [C42G T44G] | 0.841 |
| GAGACCGCAACTGAAAAGTTGTTATCACTTGTCGTAAGACAGTATGGATGGGTTGAAGTTCTGCACGTAGAAGCAAAAGGC [C42G T44A] | 0.851 |
| GAGACCGCAACTGAAAAGTTGTTATCACTTGTCGTAAGACAGTCTGGATGGGTTGAAGTTCTGCACGTAGAAGCAAAAGGC [C42G T44C] | 0.851 |
| GAGACCGCAACTGAAAAGTTGTTATCACTTGTCGTAAGACATTTTGGATTGGTTGAAGTTCTGCACGTAGAAGCAAAAGGC [C42T G50T] | 0.808 |
| GAGACCGCAACTGAAAAGTTGTTATCACTTGTCGTAAGACATTTTGGATCGGTTGAAGTTCTGCACGTAGAAGCAAAAGGC [C42T G50C] | 0.497 |
| GAGACCGCAACTGAAAAGTTGTTATCACTTGTCGTAAGACATTTTGGATAGGTTGAAGTTCTGCACGTAGAAGCAAAAGGC [C42T G50A] | 0.634 |
| GAGACCGCAACTGAAAAGTTGTTATCACTTGTCGTAAGACAATGTGGATGGGTTGAAGTTCTGCACGTAGAAGCAAAAGGC [C42A T44G] | 0.805 |
| GAGACCGCAACTGAAAAGTTGTTATCACTTGTCGTAAGACAATCTGGATGGGTTGAAGTTCTGCACGTAGAAGCAAAAGGC [C42A T44C] | 0.834 |
| GAGACCGCAACTGAAAAGTTGTTATCACTTGTCGTAAGACAATATGGATGGGTTGAAGTTCTGCACGTAGAAGCAAAAGGC [C42A T44A] | 0.855 |

— the supplement of paper PMC6755084
